Data: paper doi:10.1101/2025.03.24.644971

How the values were obtained:
Test in all cases: EMSA
[1] = test system: Calb_Rsc1 213-599 WT (AT-hook-BD2-BAH) (Candida albicans); conditions: 50 mM Tris-HCl pH 7.5, 100 mM NaCl, 2.5% glycerol, 0.1 mM EDTA, 1 mM DTT
[2] = test system: Calb_Rsc1 213-599 BAH mutant (Candida albicans); conditions: 50 mM Tris-HCl pH 7.5, 100 mM NaCl, 2.5% glycerol, 0.1 mM EDTA, 1 mM DTT
[3] = biological target: Scer_Rsc2 261-636 basic-surface mutant (Saccharomyces cerevisiae, UniProt Q06488 261-636, K286E;K289E;K290E)
[4] = biological target: T1, Scer_Rsc1 221-596 basic-surface mutant (Saccharomyces cerevisiae, UniProt P53236 221-596, K246E;R249E;R250E)
T1 sequence: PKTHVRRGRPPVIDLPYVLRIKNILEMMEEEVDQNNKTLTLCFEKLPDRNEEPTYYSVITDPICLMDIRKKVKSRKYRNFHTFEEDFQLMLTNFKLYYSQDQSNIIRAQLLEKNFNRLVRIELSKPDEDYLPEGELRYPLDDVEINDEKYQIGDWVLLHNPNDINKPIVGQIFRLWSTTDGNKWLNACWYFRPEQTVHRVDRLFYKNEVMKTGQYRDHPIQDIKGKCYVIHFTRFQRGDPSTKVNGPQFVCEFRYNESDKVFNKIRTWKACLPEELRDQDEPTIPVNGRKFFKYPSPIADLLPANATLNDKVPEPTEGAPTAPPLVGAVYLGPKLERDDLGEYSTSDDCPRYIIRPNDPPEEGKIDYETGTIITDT

Scer_Rsc2 261-636 WT = Scer_Rsc2 261-636 WT (Saccharomyces cerevisiae, UniProt Q06488 261-636)
Scer_Rsc1 221-596 WT = biological target: T2, Scer_Rsc1 221-596 WT (Saccharomyces cerevisiae, UniProt P53236 221-596)
T2 sequence: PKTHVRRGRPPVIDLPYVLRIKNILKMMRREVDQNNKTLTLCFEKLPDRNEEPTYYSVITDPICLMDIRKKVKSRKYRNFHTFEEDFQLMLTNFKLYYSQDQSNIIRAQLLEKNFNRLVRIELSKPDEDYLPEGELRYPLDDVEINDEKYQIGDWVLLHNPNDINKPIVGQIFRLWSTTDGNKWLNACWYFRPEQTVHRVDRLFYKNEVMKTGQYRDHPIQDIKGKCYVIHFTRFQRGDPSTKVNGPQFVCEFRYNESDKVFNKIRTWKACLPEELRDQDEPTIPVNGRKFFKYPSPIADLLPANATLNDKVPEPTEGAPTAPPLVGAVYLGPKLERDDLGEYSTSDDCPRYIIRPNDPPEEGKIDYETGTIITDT

Chain of Scer_Rsc2 261-636 basic-surface mutant (Q06488 261-636 K286E/K289E/K290E): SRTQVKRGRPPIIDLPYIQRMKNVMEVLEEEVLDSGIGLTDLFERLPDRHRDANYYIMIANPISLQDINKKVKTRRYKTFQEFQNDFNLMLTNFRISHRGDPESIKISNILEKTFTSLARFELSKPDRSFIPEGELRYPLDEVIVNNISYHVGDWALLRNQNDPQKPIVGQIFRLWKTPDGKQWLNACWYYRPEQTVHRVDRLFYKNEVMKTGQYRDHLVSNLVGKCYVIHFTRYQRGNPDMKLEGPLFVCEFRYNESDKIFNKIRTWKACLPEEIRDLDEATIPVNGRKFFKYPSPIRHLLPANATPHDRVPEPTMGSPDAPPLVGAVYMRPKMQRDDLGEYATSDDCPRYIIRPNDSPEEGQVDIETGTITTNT
Chain of Scer_Rsc2 261-636 WT (Q06488 261-636): as the sequence (Q06488 261-636 K286E/K289E/K290E) above, with E26K, E29K, E30K counted along it

ATCAGGTCGCTGTTCAATACATGCACAGGATGTATATATCTGACACGTGCCTGGAGACTAGGGAGTAATCCCCTTGGCGGTTAAAACGCGGGGGACAGCGCGTACGTGCGTTTAAGCGGTGCTAGAGCTGTCTACGACCAATTGAGCGGCCTCGGCACCGGGATTCTCCAGGGCGGCCGCGTATAGGGTCCATCGAT (double strand) [197bp 601 DNA]
Kd [1]: 1900 nM | Kd [2]: 11.3 µM

ATCGATGTATATATCTGACACGTGCCTGGAGACTAGGGAGTAATCCCCTTGGCGGTTAAAACGCGGGGGACAGCGCGTACGTGCGTTTAAGCGGTGCTAGAGCTGTCTACGACCAATTGAGCGGCCTCGGCACCGGGATTCTGAT (double strand) [145bp 601 DNA]
Kd [1]: 1900 nM | Kd [2]: > 15 µM

GCATCAGTCTTATAGGAAGAAAAACAAAAAGTCCATCGATCTAG (double strand) [A-rich (polyA) probe]
Kd [1]: 7400 nM

B1: A-rich (polyA) probe (dsDNA)
DNA 1: GCATCAGTCTTATAGGAAGAAAAACAAAAAGTCCATCGATCTAG
DNA 2: CTAGATCGATGGACTTTTTGTTTTTCTTCCTATAAGACTGATGC
binding result [3]: no binding | binding result [4]: no binding | Kd (Scer_Rsc2 261-636 WT): 2900 nM | Kd (Scer_Rsc1 221-596 WT): 3.7 µM
